The results in this text go back to publication PMC5705219.

The test concerns the target PRDM9 chimera: human exons 1-9 joined to the final exon (ZF array, 18 zinc fingers) of the chimpanzee reference PRDM9 allele w11a, C-terminally tagged with HA or V5 (human | chimpanzee). Briefly: co-IP; direct competition: HEK293T transfected with three constructs, Human and Chimp prey with the same epitope tag and Human or Chimp bait with the complementary tag; IP against the bait tag, western against the prey tag; both directions of HA/V5 tagging.

A value given as a limit tells only on which side of the number the result lay.

On to “PRDM9 chimera: human exons 1-9 joined to the final exon (ZF array, 18 zinc fingers) of the chimpanzee reference PRDM9 allele w11a, C-terminally tagged with HA or V5”, for which the fold pull-down efficiency against Human PRDM9 prey on the same Chimp bait was greater than 2 fold.
